Measured values taken from PMC9192718.

Key:
[1] = target: Odinarchaeota (Ca. Odinarchaeum yellowstonii LCB_4) Vps23 (TSG101) (Ca. Odinarchaeum yellowstonii LCB_4); test: SEC-MALS; Odinarchaeota proteins; 100 µl at 2 mg/ml; Superdex 200 10/300 Increase GL; 20 mM Tris pH 8.0, 300 mM NaCl, 0.4 ml/min
[2] = target: Heimdallarchaeota AB125 Vps22 (HeimAB125_14050) (Heimdallarchaeota AB125); test: SEC-MALS; Heimdallarchaeotal Vps22 alone, loaded at 2.0 and 0.5 mg/ml; Superdex 200 increase 10/300; 20 mM Tris-HCl pH 8.0, 200 mM NaCl, 0.5 ml/min
[3] = target: Heimdallarchaeota AB125 Vps22 (HeimAB125_14050) (Heimdallarchaeota AB125); test: cross-linking; Vps22 15 µM in 20 mM HEPES-NaOH pH 7.5, 150 mM NaCl; 16 mM EDC with 16 mM Sulfo-NHS (1 h) or 2 mM BS3 (2 h) on ice; SDS-PAGE

Odinarchaeota (Ca. Odinarchaeum yellowstonii LCB_4) Vps23 (TSG101) (natural protein)
stoichiometry N [1]: 2

Heimdallarchaeota AB125 Vps22 (HeimAB125_14050) (natural protein)
stoichiometry N [2]: 2 | stoichiometry N [3]: 2

Odinarchaeota (Ca. Odinarchaeum yellowstonii LCB_4) Vps28 (natural protein)
stoichiometry N (Vps28 per Vps23 dimer) [1]: 1
